Measured values from patent US20260232769A1 (WUXI BIOLOGICS IRELAND, published 2026).
Where two headings read alike, the source gives them in different places.

T1: IL-2Rβ/γc complex (intermediate affinity receptor) on primary human CD8+ T cells (human, UniProt P14784 27-551; P31785 23-369)
T1 sequence (looked up) 1: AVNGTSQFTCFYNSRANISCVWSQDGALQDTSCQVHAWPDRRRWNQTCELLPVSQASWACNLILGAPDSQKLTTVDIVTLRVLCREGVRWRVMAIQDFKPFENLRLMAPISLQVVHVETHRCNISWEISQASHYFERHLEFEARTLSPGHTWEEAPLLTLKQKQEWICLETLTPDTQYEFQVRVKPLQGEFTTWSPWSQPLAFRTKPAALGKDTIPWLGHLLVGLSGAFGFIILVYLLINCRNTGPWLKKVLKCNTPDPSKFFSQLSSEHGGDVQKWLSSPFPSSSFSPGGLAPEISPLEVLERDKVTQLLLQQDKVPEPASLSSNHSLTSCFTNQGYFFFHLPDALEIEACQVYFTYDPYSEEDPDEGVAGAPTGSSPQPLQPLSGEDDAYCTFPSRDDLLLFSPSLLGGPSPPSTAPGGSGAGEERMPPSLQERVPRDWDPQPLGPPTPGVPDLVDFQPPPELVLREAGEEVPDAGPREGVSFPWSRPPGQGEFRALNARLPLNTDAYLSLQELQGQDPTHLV
T1 sequence (looked up) 2: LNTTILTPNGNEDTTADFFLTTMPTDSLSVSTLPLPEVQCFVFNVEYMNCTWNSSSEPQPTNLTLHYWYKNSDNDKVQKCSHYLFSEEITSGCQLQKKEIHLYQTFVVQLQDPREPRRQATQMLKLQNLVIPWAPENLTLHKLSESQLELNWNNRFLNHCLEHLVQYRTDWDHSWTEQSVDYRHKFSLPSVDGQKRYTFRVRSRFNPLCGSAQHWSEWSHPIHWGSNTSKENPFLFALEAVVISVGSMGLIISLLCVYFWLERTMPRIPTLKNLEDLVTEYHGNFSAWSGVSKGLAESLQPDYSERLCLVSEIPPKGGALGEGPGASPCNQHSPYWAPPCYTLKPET

T2: IL-2Rα/β/γc complex (high affinity receptor) on human activated CD8+ T cells (human, UniProt P01589 22-272; P14784 27-551; P31785 23-369)
T2 sequence (looked up) 1: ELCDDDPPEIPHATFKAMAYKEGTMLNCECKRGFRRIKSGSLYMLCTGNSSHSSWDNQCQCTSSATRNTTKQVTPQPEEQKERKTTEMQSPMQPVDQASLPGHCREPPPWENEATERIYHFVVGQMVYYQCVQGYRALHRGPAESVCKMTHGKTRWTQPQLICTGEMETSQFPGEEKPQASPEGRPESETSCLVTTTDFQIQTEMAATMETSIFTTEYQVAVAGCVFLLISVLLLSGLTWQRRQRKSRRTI
T2 sequence (looked up) 2: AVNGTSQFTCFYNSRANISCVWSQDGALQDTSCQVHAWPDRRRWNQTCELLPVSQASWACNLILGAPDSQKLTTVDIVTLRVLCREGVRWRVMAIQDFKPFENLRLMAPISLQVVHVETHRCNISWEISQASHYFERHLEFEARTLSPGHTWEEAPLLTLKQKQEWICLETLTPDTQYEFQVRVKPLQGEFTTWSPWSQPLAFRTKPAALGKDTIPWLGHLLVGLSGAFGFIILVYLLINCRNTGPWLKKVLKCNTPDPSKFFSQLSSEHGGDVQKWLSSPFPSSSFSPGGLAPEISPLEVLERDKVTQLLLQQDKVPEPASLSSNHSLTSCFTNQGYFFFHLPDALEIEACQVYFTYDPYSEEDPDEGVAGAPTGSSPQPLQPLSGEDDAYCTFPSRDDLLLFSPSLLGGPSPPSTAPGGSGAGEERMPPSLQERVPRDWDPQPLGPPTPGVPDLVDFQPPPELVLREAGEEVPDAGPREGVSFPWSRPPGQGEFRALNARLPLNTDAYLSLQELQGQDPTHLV
T2 sequence (looked up) 3: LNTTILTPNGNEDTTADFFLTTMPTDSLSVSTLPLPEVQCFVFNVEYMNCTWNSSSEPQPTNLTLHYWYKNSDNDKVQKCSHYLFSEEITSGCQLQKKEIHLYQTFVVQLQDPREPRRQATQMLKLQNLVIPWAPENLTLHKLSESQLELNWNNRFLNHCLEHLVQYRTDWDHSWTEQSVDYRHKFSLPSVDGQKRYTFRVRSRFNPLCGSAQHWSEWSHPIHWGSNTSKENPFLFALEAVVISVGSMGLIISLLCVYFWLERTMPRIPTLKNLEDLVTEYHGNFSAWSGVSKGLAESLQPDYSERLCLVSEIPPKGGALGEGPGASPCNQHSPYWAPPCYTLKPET

B1: W3XX115-T2U3.E44-20.uIgG4V322 (Fc fusion)
chain: APTSSSTKKTQLQLEHLLLDLQMILNGINNYKNPKLTWMLTFKFYMPKKATELKHLQCLEEELKPLEEVLNLAQSKNFHLRPRDLISNINVIVLELKGSETTFMCEYADETATIVEFLNRWITFCQSIIESKYGPPCPPCPAPEAAGGPSVFLFPPKPKDTLMISRTPEVTCVVVDVSQEDPEVQFNWYVDGVEVHNAKTKPREEQFNSTYRVVSVLTVLHQDWLNGKEYKCKVSNKGLPSSIEKTISKAKGQPREPQVYTLPPCQEEMTKNQVSLWCLVKGFYPSDIAVEWESNGQPENNYKTTPPVLDSDGSFFLYSRLTVDKSRWQEGNVFSCSVMHEALHNHYTQKSLSLSLGK
heavy: QVQLVQSGAEVKKPGSSVKVSCKASGFTFTTYYISWVRQAPGQGLEYLGYINMGSGGTNYNEKFKGRVTITADKSTSTAYMELSSLRSEDTAVYYCAIIGYFDYWGQGTMVTVSSASTKGPSVFPLAPCSRSTSESTAALGCLVKDYFPEPVTVSWNSGALTSGVHTFPAVLQSSGLYSLSSVVTVPSSSLGTKTYTCNVDHKPSNTKVDKRVESKYGPPCPPCPAPEAAGGPSVFLFPPKPKDTLMISRTPEVTCVVVDVSQEDPEVQFNWYVDGVEVHNAKTKPREEQFNSTYRVVSVLTVLHQDWLNGKEYKCKVSNKGLPSSIEKTISKAKGQPREPQVCTLPPSQEEMTKNQVSLSCAVKGFYPSDIAVEWESNGQPENNYKTTPPVLDSDGSFFLVSRLTVDKSRWQEGNVFSCSVMHEALHNHYTQKSLSLSLGK
light: DVVMTQSPLSLPVTLGQPASISCRSSQSLLDSDGGTYLYWFQQRPGQSPRRLIYLVSTLGSGVPDRFSGSGSGTDFTLKISRVEAEDVGVYYCMQLTHWPYTFGQGTKLEIKRTVAAPSVFIFPPSDEQLKSGTASVVCLLNNFYPREAKVQWKVDNALQSGNSQESVTEQDSKDSTYSLSSTLTLSKADYEKHKVYACEVTHQGLSSPVTKSFNRGEC
B2: W3XX115-T2U3.E44-33.uIgG4V322 (Fc fusion)
chain: APTSSSTKKTQLQLEHLLLDLQMILNGINNYKNPKLTWMLTFKFYMPKKATELKHLQCLEEELKPLEEVLNLAQSKNFHLRPRDLISNINVIVLELKGSETTFMCEYADETATIVEFLNRWITFCQSILESKYGPPCPPCPAPEAAGGPSVFLFPPKPKDTLMISRTPEVTCVVVDVSQEDPEVQFNWYVDGVEVHNAKTKPREEQFNSTYRVVSVLTVLHQDWLNGKEYKCKVSNKGLPSSIEKTISKAKGQPREPQVYTLPPCQEEMTKNQVSLWCLVKGFYPSDIAVEWESNGQPENNYKTTPPVLDSDGSFFLYSRLTVDKSRWQEGNVFSCSVMHEALHNHYTQKSLSLSLGK
heavy: QVQLVQSGAEVKKPGSSVKVSCKASGFTFTTYYISWVRQAPGQGLEYLGYINMGSGGTNYNEKFKGRVTITADKSTSTAYMELSSLRSEDTAVYYCAIIGYFDYWGQGTMVTVSSASTKGPSVFPLAPCSRSTSESTAALGCLVKDYFPEPVTVSWNSGALTSGVHTFPAVLQSSGLYSLSSVVTVPSSSLGTKTYTCNVDHKPSNTKVDKRVESKYGPPCPPCPAPEAAGGPSVFLFPPKPKDTLMISRTPEVTCVVVDVSQEDPEVQFNWYVDGVEVHNAKTKPREEQFNSTYRVVSVLTVLHQDWLNGKEYKCKVSNKGLPSSIEKTISKAKGQPREPQVCTLPPSQEEMTKNQVSLSCAVKGFYPSDIAVEWESNGQPENNYKTTPPVLDSDGSFFLVSRLTVDKSRWQEGNVFSCSVMHEALHNHYTQKSLSLSLGK
light: DVVMTQSPLSLPVTLGQPASISCRSSQSLLDSDGGTYLYWFQQRPGQSPRRLIYLVSTLGSGVPDRFSGSGSGTDFTLKISRVEAEDVGVYYCMQLTHWPYTFGQGTKLEIKRTVAAPSVFIFPPSDEQLKSGTASVVCLLNNFYPREAKVQWKVDNALQSGNSQESVTEQDSKDSTYSLSSTLTLSKADYEKHKVYACEVTHQGLSSPVTKSFNRGEC
B3: W3XX115-T2U0.E44-48.uIgG4V322 (Fc fusion)
chain: APTSSSTKKTQLQLEHLLLDLQMILNGINNYKNPKLTRMLTFKFYMPKKATELKHLQCLEEELKPLEEVLNLAQSKNFHLRPRDLISNINVIVLELKGSETTFMCEYADETATIVEFLNRWYTFCQSILESKYGPPCPPCPAPEAAGGPSVFLFPPKPKDTLMISRTPEVTCVVVDVSQEDPEVQFNWYVDGVEVHNAKTKPREEQFNSTYRVVSVLTVLHQDWLNGKEYKCKVSNKGLPSSIEKTISKAKGQPREPQVYTLPPCQEEMTKNQVSLWCLVKGFYPSDIAVEWESNGQPENNYKTTPPVLDSDGSFFLYSRLTVDKSRWQEGNVFSCSVMHEALHNHYTQKSLSLSLG
heavy: EIQLQQSGPELVKPGASVKVSCKASGYSFTDYNMYWVKQSHGESLEWIGYIDPYNGGTRYNQKFKGKATLTVDKSSSTAFMHLNSLTSEDSAVYYCARNGHWDGAWFAYWGQGTLVTVSAASTKGPSVFPLAPCSRSTSESTAALGCLVKDYFPEPVTVSWNSGALTSGVHTFPAVLQSSGLYSLSSVVTVPSSSLGTKTYTCNVDHKPSNTKVDKRVESKYGPPCPPCPAPEAAGGPSVFLFPPKPKDTLMISRTPEVTCVVVDVSQEDPEVQFNWYVDGVEVHNAKTKPREEQFNSTYRVVSVLTVLHQDWLNGKEYKCKVSNKGLPSSIEKTISKAKGQPREPQVCTLPPSQEEMTKNQVSLSCAVKGFYPSDIAVEWESNGQPENNYKTTPPVLDSDGSFFLVSRLTVDKSRWQEGNVFSCSVMHEALHNHYTQKSLSLSLG
light: DIQMNQSPSSLSASLGDTITITCHASQNINVWLSWYQQKPGNIPKLLIYKASNLHTGVPSRFSGSRSGTGFTLTISSLQPEDIATYYCHQGQSYPFTFGSGTKLEIKRTVAAPSVFIFPPSDEQLKSGTASVVCLLNNFYPREAKVQWKVDNALQSGNSQESVTEQDSKDSTYSLSSTLTLSKADYEKHKVYACEVTHQGLSSPVTKSFNRGEC
B4: W3XX115-T2U0.E44-49.uIgG4V322 (Fc fusion)
chain: APTSSSTKKTQLQLEHLLLDLQMILNGINNYDNPKLTRMLTFKFYMPKKATELKHLQCLEEELKPLEEVLNLAQSKNFHLRPRDLISNINVIVLELKGSETTFMCEYADETATIVEFLNRWITFCQSILESKYGPPCPPCPAPEAAGGPSVFLFPPKPKDTLMISRTPEVTCVVVDVSQEDPEVQFNWYVDGVEVHNAKTKPREEQFNSTYRVVSVLTVLHQDWLNGKEYKCKVSNKGLPSSIEKTISKAKGQPREPQVYTLPPCQEEMTKNQVSLWCLVKGFYPSDIAVEWESNGQPENNYKTTPPVLDSDGSFFLYSRLTVDKSRWQEGNVFSCSVMHEALHNHYTQKSLSLSLG
heavy: EIQLQQSGPELVKPGASVKVSCKASGYSFTDYNMYWVKQSHGESLEWIGYIDPYNGGTRYNQKFKGKATLTVDKSSSTAFMHLNSLTSEDSAVYYCARNGHWDGAWFAYWGQGTLVTVSAASTKGPSVFPLAPCSRSTSESTAALGCLVKDYFPEPVTVSWNSGALTSGVHTFPAVLQSSGLYSLSSVVTVPSSSLGTKTYTCNVDHKPSNTKVDKRVESKYGPPCPPCPAPEAAGGPSVFLFPPKPKDTLMISRTPEVTCVVVDVSQEDPEVQFNWYVDGVEVHNAKTKPREEQFNSTYRVVSVLTVLHQDWLNGKEYKCKVSNKGLPSSIEKTISKAKGQPREPQVCTLPPSQEEMTKNQVSLSCAVKGFYPSDIAVEWESNGQPENNYKTTPPVLDSDGSFFLVSRLTVDKSRWQEGNVFSCSVMHEALHNHYTQKSLSLSLG
light: DIQMNQSPSSLSASLGDTITITCHASQNINVWLSWYQQKPGNIPKLLIYKASNLHTGVPSRFSGSRSGTGFTLTISSLQPEDIATYYCHQGQSYPFTFGSGTKLEIKRTVAAPSVFIFPPSDEQLKSGTASVVCLLNNFYPREAKVQWKVDNALQSGNSQESVTEQDSKDSTYSLSSTLTLSKADYEKHKVYACEVTHQGLSSPVTKSFNRGEC

Key:
Assay in all cases: cell-based or functional assay
[1] = target: T1, IL-2Rβ/γc complex (intermediate …)
[2] = target: PD-1 (on CHO-PD1 engineered cell line; on activated CD8+ T cells) (UniProt Q15116 25-288, limits assumed)
[3] = target: T2, IL-2Rα/β/γc complex (high affinity …)
[4] = target: T1, IL-2Rβ/γc complex (intermediate …); remark: listed apart in the source
[5] = target: T2, IL-2Rα/β/γc complex (high affinity …); remark: listed apart in the source

| Binder | Potency reduction, pSTAT5, human primary CD8+ T [1] [fold] | pSTAT5 EC50, human primary CD8+ T [1] [nM] | PD-1+/PD-1- ratio (pSTAT5 potency, activated versus primary CD8+ T) [2] [fold] | Potency reduction, pSTAT5, human activated CD8+ T (CD25 positive and PD-1 positive) [3] [fold] | pSTAT5 EC50, human activated CD8+ T (CD25 positive and PD-1 positive) [3] [nM] | Potency reduction, pSTAT5, human primary CD8+ T [4] [fold] | pSTAT5 EC50, human primary CD8+ T [4] [nM] | Potency reduction, pSTAT5, human activated CD8+ T [5] [fold] | pSTAT5 EC50, human activated CD8+ T [5] [nM] |
| --- | --- | --- | --- | --- | --- | --- | --- | --- | --- |
| B1 | 56.8 | 809 | 669 | 44.3 | 1.21 |  |  |  |  |
| B2 | 26.2 | 373 | 283 | 48.6 | 1.32 |  |  |  |  |
| B3 |  |  |  |  |  | 2.7 | 300 | 14.7 | 0.25 |
| B4 |  |  |  |  |  | 3.8 | 425 | 22.2 | 0.38 |
